According to patent US20140087995A1 (published 2014):
Numbered stars: 1 amine (or outer) side, 2 acyl side, 3 side chain; on linkers, the order of the positions; unused ones are H or OH. Bridge positions count the residues as written; N and C are the ends. Side chains are listed from the residue outwards. Ends that are not written are not given here. * marks the point of attachment. C20 diacid = O=C(O)CCCCCCCCCCCCCCCCCCC(=O)*; γGlu = O=C(O)[C@H](CCC(=O)[*:2])N[*:1]; AEEA = NCCOCCOCC(=O)O

B1: N^ε1-[2-[2-[2-(19-carboxynonadecanoylamino)ethoxy]ethoxy]acetyl]-[Arg17,Pro21,Pro27]-h-amylin (peptide)
peptide: K([AEEA-C20 diacid])CNTATCATQRLANFLRHSSPNFGAIPSSTNVGSNTY-NH2
modifications: disulfide 2-7; N-terminus assumed
SMILES: CC[C@H](C)[C@H](NC(=O)[C@H](C)NC(=O)CNC(=O)[C@H](Cc1ccccc1)NC(=O)[C@H](CC(N)=O)NC(=O)[C@@H]1CCCN1C(=O)[C@H](CO)NC(=O)[C@H](CO)NC(=O)[C@H](Cc1c[nH]cn1)NC(=O)[C@H](CCCNC(=N)N)NC(=O)[C@H](CC(C)C)NC(=O)[C@H](Cc1ccccc1)NC(=O)[C@H](CC(N)=O)NC(=O)[C@H](C)NC(=O)[C@H](CC(C)C)NC(=O)[C@H](CCCNC(=N)N)NC(=O)[C@H](CCC(N)=O)NC(=O)[C@@H](NC(=O)[C@H](C)NC(=O)[C@@H]1CSSC[C@H](NC(=O)[C@@H](N)CCCCNC(=O)COCCOCCNC(=O)CCCCCCCCCCCCCCCCCCC(=O)O)C(=O)N[C@@H](CC(N)=O)C(=O)N[C@@H]([C@@H](C)O)C(=O)N[C@@H](C)C(=O)N[C@@H]([C@@H](C)O)C(=O)N1)[C@@H](C)O)C(=O)N1CCC[C@H]1C(=O)N[C@@H](CO)C(=O)N[C@@H](CO)C(=O)N[C@H](C(=O)N[C@@H](CC(N)=O)C(=O)N[C@H](C(=O)NCC(=O)N[C@@H](CO)C(=O)N[C@@H](CC(N)=O)C(=O)N[C@H](C(=O)N[C@@H](Cc1ccc(O)cc1)C(N)=O)[C@@H](C)O)C(C)C)[C@@H](C)O
notes: Analogue of human amylin; also called compound 43
B2: N^ε1-[2-[2-[2-[[(4S)-4-carboxy-4-(19-carboxynonadecanoylamino)butanoyl]amino]ethoxy]ethoxy]acetyl]-[Ala14,Arg17,Pro21,Pro27,Pro31]-h-amylin (peptide)
peptide: K([AEEA-γGlu-C20 diacid])CNTATCATQRLAAFLRHSSPNFGAIPSSTPVGSNTY-NH2
modifications: disulfide 2-7; N-terminus assumed
SMILES: CC[C@H](C)[C@H](NC(=O)[C@H](C)NC(=O)CNC(=O)[C@H](Cc1ccccc1)NC(=O)[C@H](CC(N)=O)NC(=O)[C@@H]1CCCN1C(=O)[C@H](CO)NC(=O)[C@H](CO)NC(=O)[C@H](Cc1c[nH]cn1)NC(=O)[C@H](CCCNC(=N)N)NC(=O)[C@H](CC(C)C)NC(=O)[C@H](Cc1ccccc1)NC(=O)[C@H](C)NC(=O)[C@H](C)NC(=O)[C@H](CC(C)C)NC(=O)[C@H](CCCNC(=N)N)NC(=O)[C@H](CCC(N)=O)NC(=O)[C@@H](NC(=O)[C@H](C)NC(=O)[C@@H]1CSSC[C@H](NC(=O)[C@@H](N)CCCCNC(=O)COCCOCCNC(=O)CC[C@H](NC(=O)CCCCCCCCCCCCCCCCCCC(=O)O)C(=O)O)C(=O)N[C@@H](CC(N)=O)C(=O)N[C@@H]([C@@H](C)O)C(=O)N[C@@H](C)C(=O)N[C@@H]([C@@H](C)O)C(=O)N1)[C@@H](C)O)C(=O)N1CCC[C@H]1C(=O)N[C@@H](CO)C(=O)N[C@@H](CO)C(=O)N[C@H](C(=O)N1CCC[C@H]1C(=O)N[C@H](C(=O)NCC(=O)N[C@@H](CO)C(=O)N[C@@H](CC(N)=O)C(=O)N[C@H](C(=O)N[C@@H](Cc1ccc(O)cc1)C(N)=O)[C@@H](C)O)C(C)C)[C@@H](C)O
notes: Analogue of human amylin; also called compound 72
B3: N^ε1-[2-[2-[2-[[(4S)-4-carboxy-4-(19-carboxynonadecanoylamino)butanoyl]amino]ethoxy]ethoxy]acetyl]-[Arg14,Arg17,Pro21,Pro27,Pro31]-h-amylin (peptide)
peptide: K([AEEA-γGlu-C20 diacid])CNTATCATQRLARFLRHSSPNFGAIPSSTPVGSNTY-NH2
modifications: disulfide 2-7; N-terminus assumed
SMILES: CC[C@H](C)[C@H](NC(=O)[C@H](C)NC(=O)CNC(=O)[C@H](Cc1ccccc1)NC(=O)[C@H](CC(N)=O)NC(=O)[C@@H]1CCCN1C(=O)[C@H](CO)NC(=O)[C@H](CO)NC(=O)[C@H](Cc1c[nH]cn1)NC(=O)[C@H](CCCNC(=N)N)NC(=O)[C@H](CC(C)C)NC(=O)[C@H](Cc1ccccc1)NC(=O)[C@H](CCCNC(=N)N)NC(=O)[C@H](C)NC(=O)[C@H](CC(C)C)NC(=O)[C@H](CCCNC(=N)N)NC(=O)[C@H](CCC(N)=O)NC(=O)[C@@H](NC(=O)[C@H](C)NC(=O)[C@@H]1CSSC[C@H](NC(=O)[C@@H](N)CCCCNC(=O)COCCOCCNC(=O)CC[C@H](NC(=O)CCCCCCCCCCCCCCCCCCC(=O)O)C(=O)O)C(=O)N[C@@H](CC(N)=O)C(=O)N[C@@H]([C@@H](C)O)C(=O)N[C@@H](C)C(=O)N[C@@H]([C@@H](C)O)C(=O)N1)[C@@H](C)O)C(=O)N1CCC[C@H]1C(=O)N[C@@H](CO)C(=O)N[C@@H](CO)C(=O)N[C@H](C(=O)N1CCC[C@H]1C(=O)N[C@H](C(=O)NCC(=O)N[C@@H](CO)C(=O)N[C@@H](CC(N)=O)C(=O)N[C@H](C(=O)N[C@@H](Cc1ccc(O)cc1)C(N)=O)[C@@H](C)O)C(C)C)[C@@H](C)O
notes: Analogue of human amylin; also called compound 64

The binders below were run against T1, rat calcitonin receptor (rat, UniProt P32214 25-516) (assay: IC50 on rat CTR divided by IC50 on rat amylin receptor (Assays VIII/VI)).
T1 construct: whole, on cells; Used as membranes prepared from BHK tk'ts 13 cells transiently transfected with the rat calcitonin receptor (Assay VIII); also called rCTR; rat calcitonin (a) receptor
T1 sequence (looked up): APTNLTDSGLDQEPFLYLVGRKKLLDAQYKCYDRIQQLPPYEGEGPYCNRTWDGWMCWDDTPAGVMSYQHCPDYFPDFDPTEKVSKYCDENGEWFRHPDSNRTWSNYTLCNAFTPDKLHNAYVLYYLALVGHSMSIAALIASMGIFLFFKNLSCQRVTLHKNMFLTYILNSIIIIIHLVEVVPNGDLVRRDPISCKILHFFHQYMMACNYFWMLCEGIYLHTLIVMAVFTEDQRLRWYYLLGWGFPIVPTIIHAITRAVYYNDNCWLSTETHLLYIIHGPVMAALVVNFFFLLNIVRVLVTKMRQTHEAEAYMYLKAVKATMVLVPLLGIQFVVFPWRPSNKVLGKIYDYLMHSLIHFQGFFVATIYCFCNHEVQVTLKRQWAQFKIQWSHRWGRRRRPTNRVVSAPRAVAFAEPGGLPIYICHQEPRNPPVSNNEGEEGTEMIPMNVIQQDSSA

Compared with B1, B2 is higher in “Ratio rCT/rAmylin binding” value: 69.1 for the first, 259 for the second.

For B3, the “Ratio rCT/rAmylin binding” value was 64.7.

These binders were tested against T2, human calcitonin receptor (human, UniProt P30988 25-474) (assay: IC50 on human CTR divided by IC50 on human amylin receptor (Assays VII/V)).
T2 construct: whole, on cells; Used as membranes prepared from a BHK tk'ts 13 cell line stably transfected with the human calcitonin receptor (Assay VII); also called hCTR; hCT
T2 sequence (looked up): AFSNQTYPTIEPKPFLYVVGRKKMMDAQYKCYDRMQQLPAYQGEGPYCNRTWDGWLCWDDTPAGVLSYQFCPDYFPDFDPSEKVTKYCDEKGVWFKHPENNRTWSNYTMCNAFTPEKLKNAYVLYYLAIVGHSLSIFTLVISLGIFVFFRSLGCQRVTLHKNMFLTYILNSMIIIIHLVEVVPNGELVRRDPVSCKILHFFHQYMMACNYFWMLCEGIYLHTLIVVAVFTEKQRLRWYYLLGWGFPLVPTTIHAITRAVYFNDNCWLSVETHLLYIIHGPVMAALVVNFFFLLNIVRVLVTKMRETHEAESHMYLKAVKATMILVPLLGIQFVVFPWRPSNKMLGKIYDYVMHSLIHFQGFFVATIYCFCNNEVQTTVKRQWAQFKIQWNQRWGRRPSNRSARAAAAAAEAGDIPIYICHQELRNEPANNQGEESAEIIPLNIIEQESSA
Protocol: The resulting pellet was resuspended, homogenized and centrifuged (20.000 rpm, 15 min) in a buffer containing 20 mM Na-HEPES and 0.1 mM EDTA (pH 7.4, buffer 2). The resulting pellet was resuspended in buffer 2 and protein concentration was measured (BCA protein Assay, Pierce). The homogenate was kept cold during the whole procedure. The membranes were kept at −80° C. until use. The assay was performed in a 384 well Optiplate (PerkinElmer) in a total volume of 40 ul. Membranes were mixed with SPA beads. Final concentration of membranes 35 ng/μL final and SPA beads was 0.05 mg/well. Test-compounds were dissolved in DMSO and further diluted in assay buffer (50 mM Hepes, pH 7.4, 1 mM CaCl2, 5 mM MgCl₂, 0.1% OA and 0.02% Tween20). […] The final mixture was incubated with shaking at 400 rpm for 120 min at 25° C. prior to centrifugation (1500 rpm, 10 min). Samples were analyzed on TopCounter™ (Packard). The IC₅₀ was calculated using (one site binding competition analysis) GraphPad Prism5 as a measure of receptor affinity.
Membranes were prepared in the following way; the cells were rinsed with PBS and incubated with Versene for approximately 5 min before harvesting. The cells were flushed with PBS and the cell-suspension was centrifuged for 5 min at 1000 rpm. Cells were homogenized (Ultrathurrax) in a buffer containing 20 mM Na-HEPES and 10 mM EDTA (pH 7.4) and centrifuged at 20.000 rpm for 15 min. The resulting pellet was resuspended, homogenized and centrifuged (20.000 rpm, 15 min) in a buffer containing 20 mM Na-HEPES and 0.1 mM EDTA (pH 7.4, buffer 2). The resulting pellet was resuspended in buffer 2 and protein concentration was measured (BCA protein Assay, Pierce). The homogenate was kept cold during the whole procedure. The membranes were kept at −80° C. until use. Assay was performed in a 384 well Optiplate (PerkinElmer) in a total volume of 40 ul. Membranes were mixed with SPA beads.

Going from B1 to B2, the “Ratio hCT/hAmylin binding” value rises from 34.7 to 247.

In the case of B3, the “Ratio hCT/hAmylin binding” value is reported as 126.

These binders were tested against T3, rat amylin receptor (rat calcitonin receptor + rat RAMP 3) (rat, UniProt P32214 25-516; Q9JJ73 23-147) (assay: SPA competition with 125I-rat amylin, membranes of BHK cells with rat CTR + rat RAMP3 (Assay VI)).
T3 construct: whole, on cells; Used as membranes prepared from BHK tk'ts 13 cells transiently transfected with rat calcitonin receptor and rat RAMP 3 (Assay VI); also called rAmylin-R; rat amylin 3(a) receptor
T3 sequence (looked up) 1: T1 sequence (looked up)
T3 sequence (looked up) 2: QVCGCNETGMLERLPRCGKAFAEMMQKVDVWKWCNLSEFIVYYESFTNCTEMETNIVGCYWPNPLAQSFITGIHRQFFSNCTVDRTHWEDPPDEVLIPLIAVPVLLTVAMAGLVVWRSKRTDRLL
Protocol: The binding assay was performed using scintillation proximity assay (SPA) beads (RPNQ0001) from PerkinElmer and cell membranes from the Amylin 3(a)/CRE-luc cells (as described in Assay (II)) were used. Membranes were prepared in the following way; the cells were rinsed with PBS and incubated with Versene for approximately 5 min before harvesting. The cells were flushed with PBS and the cell-suspension was centrifuged for 5 min at 1000 rpm. Cells were homogenized (ultrathurrax) in a buffer containing 20 mM Na-HEPES and 10 mM EDTA (pH 7.4) and centrifuged at 20.000 rpm for 15 min. The resulting pellet was resuspended, homogenized and centrifuged (20.000 rpm, 15 min) in a buffer containing 20 mM Na-HEPES and 0.1 mM EDTA (pH 7.4, buffer 2). The resulting pellet was resuspended in buffer 2 and protein concentration was measured (BCA protein Assay, Pierce). The homogenate was kept cold during the whole procedure. The membranes were kept at −80° C. until use. The assay was performed in a 384 well Optiplate (PerkinElmer) in a total volume of 40 ul. Membranes were mixed with SPA beads. Final concentration of membranes 35 ng/μL final and SPA beads was 0.05 mg/well. Test-compounds were dissolved in DMSO and further diluted in assay buffer (50 mM Hepes, pH 7.4, 1 mM CaCl2, 5 mM MgCl₂, 0.1% OA and 0.02% Tween20). […] The final mixture was incubated with shaking at 400 rpm for 120 min at 25° C. prior to centrifugation (1500 rpm, 10 min). Samples were analyzed on TopCounter™ (Packard). The IC₅₀ was calculated using (one site binding competition analysis) GraphPad Prism5 as a measure of receptor affinity.
Cells were grown in DMEM with 10% FBS and 1% Pen/Strep. Approximately 48 hours after transfection, the cells were harvested and membranes were prepared.

First: B1
Second: B2
The IC50 of the first is 7.7-fold lower: 0.11 nM for the first, 0.851 nM for the second.

In the case of B3, the IC50 is reported as 1.97 nM.

The binders below were run against T1, rat calcitonin receptor (assay: SPA competition with 125I-calcitonin, membranes of BHK cells with rat CTR (Assay VIII)).

First: B1
Second: B2
The IC50 of the first is 29-fold lower: 7.6 nM for the first, 221 nM for the second. The first is the more potent here.

B3 showed an IC50 of 128 nM.
